Biological target: recombinant human C2
Experiment: ECL_MSD
Settings: pH 6.0; 0.2 mol/L citric acid, 0.2 mol/L sodium citrate; 150 mmol/L NaCl

EC50: 32.2 µg/mL
Substance: ARGX-117

Source: PMC7485568
